Source: the supplement of paper PMC10598134
± gives the standard deviation.

Assay: collision cross section of modified peptide (TIMS, N2, iRT-aligned); higher = larger / more extended gas-phase ion
Outline: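 Collision cross section values rest on the Mason-Schamp equation applied to calibrated, run-aligned mobility data from synthetic peptides. Mobility (1/K0) was calibrated with three reference ions and aligned per run to the median iRT peptide deviation, and 1–3 technical replicates of the most abundant feature per charge state were averaged. Data came from a timsTOF Pro/HT in dda-PASEF mode (nitrogen, ~2.4 mbar) after a 120-min nanoflow C18 gradient at 60 °C.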

[1] = charge state: 2, modification: Methyl (K)
[2] = charge state: 3, modification: Methyl (K)
[3] = charge state: 2, modification: Nitro (Y)
[4] = charge state: 2, modification: Biotin
[5] = charge state: 3, modification: Biotin
[6] = charge state: 2, modification: Succinyl
[7] = charge state: 3, modification: Succinyl
[8] = charge state: 2, modification: hydroxyisobutyryl
[9] = charge state: 3, modification: Methyl (R)

For SPDEAYAIAKK [_SPDEAYAIAK(Methyl (K))K_], the collision cross section [1] was 372.23 ± 0.47 Å² and the collision cross section [2] was 436.75 ± 4.3 Å².

Substance “ANEKTESSSAQQVAVSR [_ANEK(Crotonyl)TESSSAQQVAVSR_]” has a collision cross section (charge state: 2, modification: Crotonyl) of 431.52 ± 7.9 Å² and a collision cross section (charge state: 3, modification: Crotonyl) of 536.98 ± 2.1 Å².

For “GERGPPGPPGR [_GERGPPGP(Hydroxyproline)PGR_]”, the collision cross section (charge state: 3, modification: Hydroxyproline) was 409.61 ± 0.34 Å².

For LDYSDFQIVK [_LDY(Nitro (Y))SDFQIVK_], the collision cross section [3] was 369.5 ± 0.55 Å².

With SSFAYKDQNENR [_SSFAYK(Biotin)DQNENR_] the collision cross section [4] was 421.15 ± 1.9 Å² and the collision cross section [5] was 490.01 ± 0.34 Å².

Substance “DLTTAGAVTQCYR [_DLTTAGAVTQCY(Nitro (Y))R_]” has a collision cross section [3] of 399.32 ± 0.8 Å² and a collision cross section (charge state: 3, modification: Nitro (Y)) of 462.24 Å².

Work on SLEEEGAAHSGKR [_SLEEEGAAHSGK(Biotin)R_] yielded a collision cross section [4] of 428.85 Å² and a collision cross section [5] of 493.19 Å².

With “AGQKLIDVNHYAK [_AGQK(Succinyl)LIDVNHYAK_]” the collision cross section [6] was 435.59 ± 1.1 Å² and the collision cross section [7] was 483.35 ± 2.9 Å².

Work on “DTGEKLTVAENEAETK [_DTGEK(hydroxyisobutyryl)LTVAENEAETK_]” yielded a collision cross section [8] of 449.65 ± 0.82 Å² and a collision cross section (charge state: 3, modification: hydroxyisobutyryl) of 520.27 ± 2.8 Å².

“DNNNSNNRGSYNR [_DNNNSNNR(Citrullination (R))GSYNR_]” gave a collision cross section (charge state: 3, modification: Citrullination (R)) of 460.73 ± 2.9 Å².

For “GSLGAQKLANTCFNEIEK [_GSLGAQK(Methyl (K))LANTCFNEIEK_]”, the collision cross section [2] was 509.24 Å².

With “VFLDCCNYITELR [_VFLDCCNY(Nitro (Y))ITELR_]” the collision cross section [3] was 448.56 ± 0.53 Å².

“ASAISIKLGSSK [_ASAISIK(Methyl (K))LGSSK_]” gave a collision cross section [1] of 369.46 ± 0.48 Å² and a collision cross section [2] of 438.5 ± 5.9 Å².

Substance “DKALPLEAEVAPVK [_DK(GlyGly (K))ALPLEAEVAPVK_]” has a collision cross section (charge state: 2, modification: GlyGly (K)) of 422.58 ± 0.97 Å² and a collision cross section (charge state: 3, modification: GlyGly (K)) of 511.69 ± 1.3 Å².

In the case of “IHNAENIQPGEQKYEYK [_IHNAENIQPGEQK(Trimethyl (K))YEYK_]”, the collision cross section (charge state: 3, modification: Trimethyl (K)) is reported as 526.11 ± 2.2 Å².

For YTCSFCGK [_Y(Phospho (Y))TCSFCGK_], the collision cross section (charge state: 2, modification: Phospho (Y)) was 336.46 ± 0.067 Å².

“VDIDAPDVSIEGPDAKLK [_VDIDAPDVSIEGPDAK(Succinyl)LK_]” showed a collision cross section [6] of 469.67 ± 0.79 Å².

In the case of “SITHSTVGSKGEK [_SITHSTVGSK(Acetyl (K))GEK_]”, the collision cross section (charge state: 2, modification: Acetyl (K)) is reported as 391.66 ± 1.8 Å² and the collision cross section (charge state: 3, modification: Acetyl (K)) is reported as 440.5 ± 4 Å².

In the case of VGEFSGANKEK [_VGEFSGANK(Propionyl)EK_], the collision cross section (charge state: 2, modification: Propionyl) is reported as 367.87 ± 0.33 Å².

Work on “IQTKAGEATVK [_IQTK(hydroxyisobutyryl)AGEATVK_]” yielded a collision cross section [8] of 374.42 ± 0.28 Å².

With “LSFGLEDEPLETATK [_LSFGLEDEPLET(HexNAc (ST))ATK_]” the collision cross section (charge state: 2, modification: HexNAc (ST)) was 457.66 ± 0.56 Å² and the collision cross section (charge state: 3, modification: HexNAc (ST)) was 480.97 Å².

In the case of “YSRGAGLGFSTAPNK [_YSR(Methyl (R))GAGLGFSTAPNK_]”, the collision cross section [9] is reported as 478.19 ± 2.5 Å².

“DLGKFQVATDALK [_DLGK(Succinyl)FQVATDALK_]” gave a collision cross section [6] of 409.86 ± 0.37 Å² and a collision cross section [7] of 478.58 Å².

With “LFVGGIKEDTEEHHLR [_LFVGGIK(Formyl)EDTEEHHLR_]” the collision cross section (charge state: 3, modification: Formyl) was 535.03 ± 1.3 Å².

For VRFHNPR [_VR(Methyl (R))FHNPR_], the collision cross section (charge state: 2, modification: Methyl (R)) was 340.13 ± 1.8 Å² and the collision cross section [9] was 406.89 ± 0.36 Å².

In the case of “GGNFGGRGGYGGGGGGSR [_GGNFGGR(Methyl (R))GGYGGGGGGSR_]”, the collision cross section [9] is reported as 462.43 ± 2.7 Å².

LQLEIDQKK [_LQLEIDQK(Gluratylation)K_] showed a collision cross section (charge state: 2, modification: Glutarylation) of 373.2 ± 0.7 Å².

Substance “RGATPPAPPR [_R(Citrullination (R))GATPPAPPR_]” has a collision cross section (charge state: 2, modification: Citrullination (R)) of 332.88 ± 2.4 Å².

In the case of “SDDESSQKDIK [_SDDESSQK(hydroxyisobutyryl)DIK_]”, the collision cross section [8] is reported as 383.53 ± 0.55 Å².

For “DASTLQSQKAEGTGDAK [_DASTLQSQK(Dimethyl (K))AEGTGDAK_]”, the collision cross section (charge state: 2, modification: Dimethyl (K)) was 438.33 ± 1.3 Å² and the collision cross section (charge state: 3, modification: Dimethyl (K)) was 482.19 ± 4.5 Å².

Substance “IHVQSSSDSSDEPAEKR [_IHVQSSSDSSDEPAEK(Methyl (K))R_]” has a collision cross section [1] of 448.84 Å² and a collision cross section [2] of 522.27 ± 1 Å².
